Reference: the supplement of paper PMC9732359
± gives the uncertainty stated by the source.

Assay: protein stability index of a GFP-peptide fusion (yeast GPS) (PSI 1-4); higher = more stable; sorted into four equal gates, so the index is relative within each strain
Method in brief: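 The protein stability index of a peptide was calculated by multiplying its read frequency in each gate by that gate's number and adding the products. The peptides were tiled 17-residue stretches of yeast proteins, fused downstream of GFP on a Cherry-expressing plasmid and carried in yeast as a pooled library. Mid-log cultures in leucine-free medium were sorted into four equal gates by GFP/Cherry ratio, and each gate's plasmids were PCR-amplified and Illumina-sequenced.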

Row | Sequence | protein stability index (doa10∆) | protein stability index (pdr5∆) | protein stability index (san1∆) | protein stability index (ubr1∆)
1 | NEKKTETNAKPFSFSSA [YLR335W/NUP2] | 3.32 ± 0.11 | 3.28 ± 0.088 | 3.33 ± 0.041 | 3.36 ± 0.079
2 | TQHKVTQYKAGKASLFA [RPL42A] | 3.29 ± 0.076 | 3.04 ± 0.062 | 2.99 ± 0.059 | 2.96 ± 0.068
3 | DPPIIIFINYKQTADWL [PRP28] | 1.43 ± 0.031 | 1.61 ± 0.048 | 1.9 ± 0.072 | 1.95 ± 0.042
4 | LNVKCTRNPDAPKGSTD [RPC40] | 3.19 ± 0.095 | 3.1 ± 0.11 | 3.04 ± 0.064 | 3.06 ± 0.12
5 | YIKSATLYSVKSKEDMK [SNU114] | 3.22 ± 0.17 | 3.31 ± 0.13 | 3.18 ± 0.082 | 3.11 ± 0.087
6 | HSRKMNLTRGINLRKVA [RPT6] | 1.26 ± 0.075 | 1.36 ± 0.05 | 1.3 ± 0.11 | 1.2 ± 0.043
7 | QNYRLDGRSFDQFRDVE [RRP45] | 3.42 ± 0.15 | 3.26 ± 0.16 | 3.34 ± 0.13 | 3.32 ± 0.092
8 | KPLKKGSADIGASVISL [SIR4] | 3.09 ± 0.068 | 3.14 ± 0.055 | 3.05 ± 0.038 | 3.06 ± 0.04
9 | RQLANLIPFIVKQVLLS [NUT1] | 1.62 ± 0.032 | 1.55 ± 0.028 | 1.59 ± 0.051 | 1.69 ± 0.033
10 | RAQVLSLGDGTNYYLTT [CSL4] | 2.6 ± 0.061 | 2.66 ± 0.05 | 2.79 ± 0.048 | 3.08 ± 0.072
11 | KKNDMNTSAKNKNGENK [SIR4] | 2.59 ± 0.06 | 2.69 ± 0.061 | 3.03 ± 0.054 | 3.12 ± 0.066
12 | PTSPAYSPTSPSYSPTS [RPO21] | 2.89 ± 0.051 | 2.86 ± 0.045 | 2.73 ± 0.037 | 2.9 ± 0.035
13 | TLKLQDTRITPSKVSKI [PRE6] | 2.53 ± 0.05 | 2.85 ± 0.052 | 2.34 ± 0.1 | 2.01 ± 0.031
14 | PHDLIIGTADIFIRQLK [BRR2] | 2.11 ± 0.057 | 2.51 ± 0.069 | 2.27 ± 0.073 | 2.49 ± 0.052
15 | KIALMNIPKPLNSYHIK [RGR1] | 1.65 ± 0.033 | 1.81 ± 0.028 | 1.69 ± 0.041 | 1.83 ± 0.022
16 | RYPMNLLEFIIDEIAYL [ECM29] | 2.43 ± 0.097 | 2.89 ± 0.1 | 2.75 ± 0.091 | 2.89 ± 0.2
17 | NGDKMPLKFKLGPLSYQ [YJR042W/NUP85] | 2.94 ± 0.12 | 3.09 ± 0.096 | 3.02 ± 0.096 | 3.27 ± 0.12
18 | LAKTKENYDAKIELEKK [YIL149C/MLP2] | 3.22 ± 0.058 | 3.47 ± 0.075 | 3.05 ± 0.061 | 3.13 ± 0.053
19 | TSGEAAALGMGLCMLGT [RPN2] | 2.92 ± 0.19 | 2.95 ± 0.21 | 3.08 ± 0.12 | 2.68 ± 0.1
20 | NNGSKDHGDGILLIDSE [RPN9] | 3.37 ± 0.16 | 3.19 ± 0.17 | 3.38 ± 0.063 | 3.41 ± 0.21
21 | RGPRNSREAVRHFGMGP [RPL18A] | 2.53 ± 0.25 | 2.86 ± 0.18 | – | –
22 | VANYSAMANAPGNNIPY [GAL11] | 2.88 ± 0.16 | 3.25 ± 0.18 | 2.7 ± 0.17 | 2.76 ± 0.16
23 | NLQTADTVIIFDTDWNP [SNF2] | 2.57 ± 0.14 | 2.96 ± 0.091 | 2.8 ± 0.078 | 2.34 ± 0.064
24 | NSKMPTRFPPAVFYTPK [PRP8] | 2.76 ± 0.056 | 3.09 ± 0.068 | 2.94 ± 0.054 | 2.93 ± 0.061
25 | VIEAKINHEDGFIETTE [RPN3] | 1.17 ± 0.16 | 1.37 ± 0.11 | 1.3 ± 0.19 | 1.13 ± 0.083
26 | IVGPDLAVLALVIVKKG [RPS6A] | 1.26 ± 0.035 | 1.34 ± 0.048 | 1.19 ± 0.093 | 1.36 ± 0.043
27 | LLAREVLRLRGALVDRT [RPS0A] | 2.17 ± 0.21 | 2.15 ± 0.094 | 1.78 ± 0.15 | 2.03 ± 0.15

Row | Sequence | protein stability index (doa10∆) | protein stability index (pdr5∆) | protein stability index (san1∆) | protein stability index (ubr1∆)
28 | QVEKLGKKMEARGQSIW [RPN9] | 1.34 ± 0.15 | 1.14 ± 0.081 | – | 1.18 ± 0.22
29 | LNLKFKEKWPSLELQSF [YML103C/NUP188] | 2.72 ± 0.097 | 2.54 ± 0.14 | 1.92 ± 0.11 | 2.05 ± 0.19
30 | PLYARYINVNPQEETIT [ECM29] | 2.74 ± 0.07 | 2.85 ± 0.059 | 2.9 ± 0.067 | 2.69 ± 0.041
31 | LDPINLPLDSQDDEYVK [PRP8] | 2.83 ± 0.075 | 3.01 ± 0.066 | 3.14 ± 0.093 | 3.05 ± 0.045
32 | WLNFLRGTIPLLERYIG [PRP8] | 1.41 ± 0.068 | 1.23 ± 0.046 | 1.18 ± 0.077 | 1.1 ± 0.065
33 | IGQFLEPIDQNTGIVSS [RPT3] | 2.48 ± 0.2 | 2.82 ± 0.11 | 2.14 ± 0.17 | 2.85 ± 0.066
34 | RNNLPAKTFGASVRIFL [RPL33A] | 2.81 ± 0.052 | 2.76 ± 0.054 | 2.84 ± 0.053 | 2.68 ± 0.052
35 | KPYYFSNNHKLSESDKK [RPN12] | 1.23 ± 0.063 | 1.47 ± 0.077 | 1.33 ± 0.13 | 1.22 ± 0.042
36 | PRQTKKAKAQAQAQAQA [PGD1] | 3.2 ± 0.077 | 3.46 ± 0.056 | 3.22 ± 0.036 | 3.06 ± 0.059
37 | LVPQLGHVGSVQISNIP [PRP8] | 2.32 ± 0.1 | 2.3 ± 0.065 | 1.91 ± 0.12 | 2.72 ± 0.089
38 | EEISFSLSEGCDILVAT [PRP28] | 2.62 ± 0.1 | 2.69 ± 0.06 | 2.72 ± 0.071 | 2.96 ± 0.058
39 | FSFTEPAQKDSSVVSEP [YOR098C/NUP1] | 3.02 ± 0.097 | 3.11 ± 0.1 | 2.81 ± 0.12 | 3.26 ± 0.094
40 | GTSKYLINGHRAPQQSV [SMC2] | 2.13 ± 0.054 | 2.36 ± 0.047 | 2.27 ± 0.076 | 2.22 ± 0.052
41 | YKRSIVRNYKPLINRLK [SWI1] | 2.4 ± 0.13 | 2.7 ± 0.1 | 1.65 ± 0.21 | 1.98 ± 0.15
42 | ALAFGYVKSLHKQISAE [SIN4] | 1.65 ± 0.056 | 2.21 ± 0.064 | 1.78 ± 0.11 | 2.32 ± 0.043
43 | SIHAHGSTDVGYYLSLG [PUP1] | 2.62 ± 0.069 | 2.79 ± 0.069 | 2.91 ± 0.065 | 2.24 ± 0.053
44 | STVKVSDLNLTDRQKKL [YLR018C/POM34] | 2.9 ± 0.063 | 2.75 ± 0.048 | 2.79 ± 0.047 | 2.76 ± 0.037
45 | LKENAGSLTFLDNKGSG [YIL149C/MLP2] | 3.31 ± 0.17 | 3.37 ± 0.1 | 3.55 ± 0.12 | 3.48 ± 0.066
46 | ANKEKKRAEKAARKAEK [RPL24B] | 3.34 ± 0.095 | 3.36 ± 0.082 | 3.58 ± 0.066 | 3.52 ± 0.078
47 | AYSMGAQNQGGQVSMSQ [PGD1] | 3.15 ± 0.095 | 3.2 ± 0.084 | 3.02 ± 0.094 | 3.22 ± 0.076
48 | PFGAKSTKSNKAKNPLT [RPL8B] | 3.38 ± 0.094 | 3.1 ± 0.067 | 2.98 ± 0.061 | 2.93 ± 0.091
49 | ESLILKWDNQSASRAKN [RGR1] | 3.16 ± 0.05 | 3.24 ± 0.055 | 2.9 ± 0.05 | 3.09 ± 0.052
50 | ACLGNDGILRLYDALEP [YGL100W/SEH1] | 2.21 ± 0.058 | 2.19 ± 0.048 | 1.86 ± 0.065 | 1.96 ± 0.034
51 | RKVEKEKNEKEREIKRR [UBP6] | 3.32 ± 0.056 | 3.27 ± 0.054 | 3.09 ± 0.053 | 3.17 ± 0.068
52 | YDTQLKVSPEELPLVIT [ARP7] | 2.6 ± 0.047 | 2.77 ± 0.062 | 2.59 ± 0.041 | 2.62 ± 0.042
53 | LLIGCKLDQDDEIYIPI [CSI1] | – | 3.12 ± 0.18 | 3.01 ± 0.084 | 3.09 ± 0.11
